Measured values from publication doi:10.1101/2022.01.05.475064.

T1: NtHY5 (6xHis-HY5) (Nicotiana tabacum, UniProt A0A1S3YJY6 1-158)
T1 sequence: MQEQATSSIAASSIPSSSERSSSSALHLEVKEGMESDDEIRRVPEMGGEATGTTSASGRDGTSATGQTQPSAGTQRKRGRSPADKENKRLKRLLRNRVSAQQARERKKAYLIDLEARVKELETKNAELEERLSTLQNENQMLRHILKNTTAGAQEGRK


Target: T1, NtHY5 (6xHis-HY5)
Experiment: EMSA

| Binder | binding result |
| --- | --- |
| NtPMT Mut P1 (G-mut I) (dsDNA) DNA 1: CAGTCTAACCATGATTAATGTAATGATTTT DNA 2: AAAATCATTACATTAATCATGGTTAGACTG | no binding |
| NtPMT P2 (G-BOX II) (dsDNA) DNA 1: TACTGTTTCCGCAACGTGCTCTTCATCAGG DNA 2: CCTGATGAAGAGCACGTTGCGGAAACAGTA | binds |
| NtMYB12 P1 (G-BOX I) (dsDNA) DNA 1: AACTTGAAATAATACGTTAAAAGATAAAA DNA 2: TTTTATCTTTTAACGTATTATTTCAAGT | binds |
| NtPMT P1 (G-BOX I) (dsDNA) DNA 1: CAGTCTAACCATGCACGTTGTAATGATTTT DNA 2: AAAATCATTACAACGTGCATGGTTAGACTG | binds |
| NtQPT Mut P1 (dsDNA) DNA 1: CATAAATAAAATTCATTCAGCTACTAAAAC DNA 2: GTTTTAGTAGCTGAATGAATTTTATTTATG | no binding |
| NtPMT Mut P2 (G-mut II) (dsDNA) DNA 1: TACTGTTTCCGCAATCTTCTCTTCATCAGG DNA 2: CCTGATGAAGAGAAGATTGCGGAAACAGTA | no binding |
| NtODC P1 (G-BOX I) (dsDNA) DNA 1: ATCTGATCACCTAACGTGACCAAGAAAATA DNA 2: TATTTTCTTGGTCACGTTAGGTGATCAGAT | binds |
| NtODC Mut P1 (dsDNA) DNA 1: ATCTGATCACCTAATATCACCAAGAAAATA DNA 2: TATTTTCTTGGTGATATTAGGTGATCAGAT | no binding |
| NtQPT P1 (G-BOX I) (dsDNA) DNA 1: CATAAATAAAACGTGTTCAGCTACTAAAAC DNA 2: GTTTTAGTAGCTGAACACGTTTTATTTATG | binds |
| NtMYB12 P2 (G-BOX II) (dsDNA) DNA 1: AGTCAACTTTGCAACGTAAAAGTCCACACA DNA 2: TGTGTGGACTTTTACGTTGCAAAGTTGACT | binds |
